Assay results as given in publication doi:10.1101/2025.05.22.655130v1.

B1: β-glucosidase B (BglB) (Paenibacillus polymyxa; L339M) (protein)
chain: MSENTFIFPATFMWGTSTSSYQIEGGTDEGGRTPSIWDTFCQIPGKVIGGDCGDVACDHFHHFKEDVQLMKQLGFLHYRFSVAWPRIMPAAGIINEEGLLFYEHLLDEIELAGLIPMLTLYHWDLPQWIEDEGGWTQRETIQHFKTYASVIMDRFGERINWWNTINEPYCASILGYGTGEHAPGHENWREAFTAAHHILMCHGIASNLHKEKGLTGKIGITLNMEHVDAASERPEDVAAAIRRDGFINRWFAEPLFNGKYPEDMVEWYGTYLNGLDFVQPGDMELIQQPGDFLGINYYTRSIIRSTNDASLLQVEQVHMEEPVTDMGWEIHPESFYKLMTRIEKDFSKGLPILITENGAAMRDELVNGQIEDTGRHGYIEEHLKACHRFIEEGGQLKGYFVWSFLDNFEWAWGYSKRFGIVHINYETQERTPKQSALWFKQMMAKNGF
B2: β-glucosidase B (BglB) (Paenibacillus polymyxa; L339A) (protein)
chain: MSENTFIFPATFMWGTSTSSYQIEGGTDEGGRTPSIWDTFCQIPGKVIGGDCGDVACDHFHHFKEDVQLMKQLGFLHYRFSVAWPRIMPAAGIINEEGLLFYEHLLDEIELAGLIPMLTLYHWDLPQWIEDEGGWTQRETIQHFKTYASVIMDRFGERINWWNTINEPYCASILGYGTGEHAPGHENWREAFTAAHHILMCHGIASNLHKEKGLTGKIGITLNMEHVDAASERPEDVAAAIRRDGFINRWFAEPLFNGKYPEDMVEWYGTYLNGLDFVQPGDMELIQQPGDFLGINYYTRSIIRSTNDASLLQVEQVHMEEPVTDMGWEIHPESFYKLATRIEKDFSKGLPILITENGAAMRDELVNGQIEDTGRHGYIEEHLKACHRFIEEGGQLKGYFVWSFLDNFEWAWGYSKRFGIVHINYETQERTPKQSALWFKQMMAKNGF
B3: β-glucosidase B (BglB) (Paenibacillus polymyxa; L339S) (protein)
chain: MSENTFIFPATFMWGTSTSSYQIEGGTDEGGRTPSIWDTFCQIPGKVIGGDCGDVACDHFHHFKEDVQLMKQLGFLHYRFSVAWPRIMPAAGIINEEGLLFYEHLLDEIELAGLIPMLTLYHWDLPQWIEDEGGWTQRETIQHFKTYASVIMDRFGERINWWNTINEPYCASILGYGTGEHAPGHENWREAFTAAHHILMCHGIASNLHKEKGLTGKIGITLNMEHVDAASERPEDVAAAIRRDGFINRWFAEPLFNGKYPEDMVEWYGTYLNGLDFVQPGDMELIQQPGDFLGINYYTRSIIRSTNDASLLQVEQVHMEEPVTDMGWEIHPESFYKLSTRIEKDFSKGLPILITENGAAMRDELVNGQIEDTGRHGYIEEHLKACHRFIEEGGQLKGYFVWSFLDNFEWAWGYSKRFGIVHINYETQERTPKQSALWFKQMMAKNGF
B4: β-glucosidase B (BglB) (Paenibacillus polymyxa; L339H) (protein)
chain: MSENTFIFPATFMWGTSTSSYQIEGGTDEGGRTPSIWDTFCQIPGKVIGGDCGDVACDHFHHFKEDVQLMKQLGFLHYRFSVAWPRIMPAAGIINEEGLLFYEHLLDEIELAGLIPMLTLYHWDLPQWIEDEGGWTQRETIQHFKTYASVIMDRFGERINWWNTINEPYCASILGYGTGEHAPGHENWREAFTAAHHILMCHGIASNLHKEKGLTGKIGITLNMEHVDAASERPEDVAAAIRRDGFINRWFAEPLFNGKYPEDMVEWYGTYLNGLDFVQPGDMELIQQPGDFLGINYYTRSIIRSTNDASLLQVEQVHMEEPVTDMGWEIHPESFYKLHTRIEKDFSKGLPILITENGAAMRDELVNGQIEDTGRHGYIEEHLKACHRFIEEGGQLKGYFVWSFLDNFEWAWGYSKRFGIVHINYETQERTPKQSALWFKQMMAKNGF
B5: β-glucosidase B (BglB) (Paenibacillus polymyxa; D38E) (protein)
chain: MSENTFIFPATFMWGTSTSSYQIEGGTDEGGRTPSIWETFCQIPGKVIGGDCGDVACDHFHHFKEDVQLMKQLGFLHYRFSVAWPRIMPAAGIINEEGLLFYEHLLDEIELAGLIPMLTLYHWDLPQWIEDEGGWTQRETIQHFKTYASVIMDRFGERINWWNTINEPYCASILGYGTGEHAPGHENWREAFTAAHHILMCHGIASNLHKEKGLTGKIGITLNMEHVDAASERPEDVAAAIRRDGFINRWFAEPLFNGKYPEDMVEWYGTYLNGLDFVQPGDMELIQQPGDFLGINYYTRSIIRSTNDASLLQVEQVHMEEPVTDMGWEIHPESFYKLLTRIEKDFSKGLPILITENGAAMRDELVNGQIEDTGRHGYIEEHLKACHRFIEEGGQLKGYFVWSFLDNFEWAWGYSKRFGIVHINYETQERTPKQSALWFKQMMAKNGF
B6: β-glucosidase B (BglB) (Paenibacillus polymyxa; D38W) (protein)
chain: MSENTFIFPATFMWGTSTSSYQIEGGTDEGGRTPSIWWTFCQIPGKVIGGDCGDVACDHFHHFKEDVQLMKQLGFLHYRFSVAWPRIMPAAGIINEEGLLFYEHLLDEIELAGLIPMLTLYHWDLPQWIEDEGGWTQRETIQHFKTYASVIMDRFGERINWWNTINEPYCASILGYGTGEHAPGHENWREAFTAAHHILMCHGIASNLHKEKGLTGKIGITLNMEHVDAASERPEDVAAAIRRDGFINRWFAEPLFNGKYPEDMVEWYGTYLNGLDFVQPGDMELIQQPGDFLGINYYTRSIIRSTNDASLLQVEQVHMEEPVTDMGWEIHPESFYKLLTRIEKDFSKGLPILITENGAAMRDELVNGQIEDTGRHGYIEEHLKACHRFIEEGGQLKGYFVWSFLDNFEWAWGYSKRFGIVHINYETQERTPKQSALWFKQMMAKNGF

Substrate: O=[N+]([O-])c1ccc(O[C@@H]2O[C@H](CO)[C@@H](O)[C@H](O)[C@H]2O)cc1
Assay: purified protein
Assay type: biochemical, Paenibacillus polymyxa
Conditions: 0.11-100 mM substrate, readings every minute for 15 min; triplicate

Protein | Km | kcat
B1 | 4.72 ± 0.82 mM | 6.58 ± 0.302 s⁻¹
B2 | 24.3 ± 1.65 mM | 9.47 ± 0.248 s⁻¹
B3 | 4.44 ± 0.62 mM | 9.53 ± 0.348 s⁻¹
B4 | 3.55 ± 0.26 mM | 11.2 ± 0.222 s⁻¹
B5 | 2.72 ± 0.31 mM | 0.272 ± 0.00667 s⁻¹
B6 | 2.80 ± 0.55 mM | 0.217 ± 0.01 s⁻¹
